The target of this assay is T1, Dhh1 (full-length) (S. cerevisiae, UniProt P39517 1-506).
T1 construct: Dhh1, DEAD-box ATPase, S. cerevisiae, full-length; also called DEAD-box ATPase Dhh1; source: purified as described previously (Mugler et al., 2016)
T1 sequence (looked up): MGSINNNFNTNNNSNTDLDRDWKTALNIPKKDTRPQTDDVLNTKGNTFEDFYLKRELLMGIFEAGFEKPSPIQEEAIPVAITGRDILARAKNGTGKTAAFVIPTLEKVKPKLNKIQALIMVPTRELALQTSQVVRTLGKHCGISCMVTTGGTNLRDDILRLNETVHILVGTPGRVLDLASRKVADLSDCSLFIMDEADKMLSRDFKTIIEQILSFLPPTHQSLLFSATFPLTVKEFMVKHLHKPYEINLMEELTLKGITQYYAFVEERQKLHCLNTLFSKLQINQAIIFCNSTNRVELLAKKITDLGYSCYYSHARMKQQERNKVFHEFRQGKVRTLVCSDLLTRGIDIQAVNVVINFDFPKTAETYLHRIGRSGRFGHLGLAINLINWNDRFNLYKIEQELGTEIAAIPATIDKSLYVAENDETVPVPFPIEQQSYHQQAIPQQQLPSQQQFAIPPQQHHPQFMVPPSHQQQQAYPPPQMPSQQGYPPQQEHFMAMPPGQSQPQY
The assay can be described thus: pull-down; GST-Pat1-NC and mutants bound to GST-slurry as bait, Dhh1 as prey; 1 hr at 4°C; wash buffer 300 mM NaCl, 10 mM Tris pH 7.5, 0.05 % NP40, washed five times; 12% acrylamide gel, Coomassie. The following applies: both partners purified.

This note sets out measurements from article PMC6366900, “Pat1 promotes processing body assembly by enhancing the phase separation of the DEAD-box ATPase Dhh1 and RNA” (eLife, 2019).

B1: GST-Pat1-NC (domain or fragment, S. cerevisiae)
chain: GLENSGNARDGPLDFEESYKGYGEHELEENDYLNDETFGDNVQVGTDFDFGNPHSSGSSGNAIGGNGVGATARSYGGSGGSGGSGGSSSYAFNNGNGATNLNKSGGKKFILELIETVYEEILDLEANLRNGQQTDSTAMWEALHIDDSSYDVNPFISMLSFDKGIKIMPRIFNFLDKQQKLKILQKIFNELSHLQIIILSSYKTTPKPTLTQLKKVDLFQMIILKIIVSFLSNNSNFIEIMGLLLQLIRNNNVSFLTTSKIGLNLITILISRAALIKQDSSRSNILSSPEISTWNEIYDKLFTSLESKIQLIFPPREYNDHIMRLQNDKFMDEAYIWQFLASLALSGKLNHQRIIIDEVRDEIFATINEAETLQKKEKELSVLPQRSQELDTELKSIIYNKEKLYQDLNLFLNVMGLVY
notes: Pat1, S. cerevisiae, N-terminal fragment (Pat1-N), amino acids 5-79; linker, printed as (GGS)4; Cloned into a pETM-CN vector; The His and GST tags were cleaved unless required for pull-down assays; In the droplet assay (functional rows) the protein was Pat1-NC-GFP, not the GST form; also called recombinant Pat1-NC protein; source: E. coli BL21 DE3, purified (Ni2+ sepharose, Superdex 200); not …
For the molecule B1, the binding result was “binds”.

B2: GST-Pat1-NC^EE (domain or fragment, S. cerevisiae)
chain: GLENSGNARDGPLDFEESYKGYGEHELEENDYLNDETFGDNVQVGTDFDFGNPHSSGSSGNAIGGNGVGATARSYGGSGGSGGSGGSEEYAFNNGNGATNLNKSGGKKFILELIETVYEEILDLEANLRNGQQTDSTAMWEALHIDDSSYDVNPFISMLSFDKGIKIMPRIFNFLDKQQKLKILQKIFNELSHLQIIILSSYKTTPKPTLTQLKKVDLFQMIILKIIVSFLSNNSNFIEIMGLLLQLIRNNNVSFLTTSKIGLNLITILISRAALIKQDSSRSNILSSPEISTWNEIYDKLFTSLESKIQLIFPPREYNDHIMRLQNDKFMDEAYIWQFLASLALSGKLNHQRIIIDEVRDEIFATINEAETLQKKEKELSVLPQRSQELDTELKSIIYNKEKLYQDLNLFLNVMGLVY
notes: Pat1, S. cerevisiae, N-terminal fragment (Pat1-N), amino acids 5-79; linker, printed as (GGS)4; Mutant of m1; also called Pat1^EE; phospho-mimetic mutant; source: E. coli BL21 DE3, purified (Ni2+ sepharose, Superdex 200); not shown: GST, N-terminal, kept
For the molecule B2, the binding result is reported as “binds”.
